Data from patent US20200017566A1 (priority 2014, published 2020).
Square brackets hold non-standard residues; d marks the D form. βAla = NCCC(=O)O; Sar = CNCC(=O)O

T1: human ferroportin (Homo sapiens, UniProt Q9NP59)
T1 construct: expressed in transfected cells
T1 sequence (Q9NP59 1-571): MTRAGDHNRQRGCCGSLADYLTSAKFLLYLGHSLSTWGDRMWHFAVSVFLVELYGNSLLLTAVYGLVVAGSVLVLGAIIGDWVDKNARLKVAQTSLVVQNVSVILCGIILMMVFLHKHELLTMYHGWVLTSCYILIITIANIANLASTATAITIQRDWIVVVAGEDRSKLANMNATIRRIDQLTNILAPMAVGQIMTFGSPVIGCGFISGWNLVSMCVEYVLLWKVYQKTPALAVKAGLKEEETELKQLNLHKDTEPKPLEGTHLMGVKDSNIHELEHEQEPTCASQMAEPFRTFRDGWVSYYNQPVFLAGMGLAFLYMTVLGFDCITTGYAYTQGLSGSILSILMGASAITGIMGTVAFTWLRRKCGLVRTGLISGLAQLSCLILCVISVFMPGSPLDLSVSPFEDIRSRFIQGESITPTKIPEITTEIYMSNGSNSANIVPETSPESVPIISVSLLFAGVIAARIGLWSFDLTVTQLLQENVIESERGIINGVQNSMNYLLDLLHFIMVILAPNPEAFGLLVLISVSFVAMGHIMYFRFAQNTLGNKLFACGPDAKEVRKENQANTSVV

T2: human ferroportin (SLC40A1) fused to GFP (human, UniProt Q9NP59 1-571)
T2 sequence (looked up): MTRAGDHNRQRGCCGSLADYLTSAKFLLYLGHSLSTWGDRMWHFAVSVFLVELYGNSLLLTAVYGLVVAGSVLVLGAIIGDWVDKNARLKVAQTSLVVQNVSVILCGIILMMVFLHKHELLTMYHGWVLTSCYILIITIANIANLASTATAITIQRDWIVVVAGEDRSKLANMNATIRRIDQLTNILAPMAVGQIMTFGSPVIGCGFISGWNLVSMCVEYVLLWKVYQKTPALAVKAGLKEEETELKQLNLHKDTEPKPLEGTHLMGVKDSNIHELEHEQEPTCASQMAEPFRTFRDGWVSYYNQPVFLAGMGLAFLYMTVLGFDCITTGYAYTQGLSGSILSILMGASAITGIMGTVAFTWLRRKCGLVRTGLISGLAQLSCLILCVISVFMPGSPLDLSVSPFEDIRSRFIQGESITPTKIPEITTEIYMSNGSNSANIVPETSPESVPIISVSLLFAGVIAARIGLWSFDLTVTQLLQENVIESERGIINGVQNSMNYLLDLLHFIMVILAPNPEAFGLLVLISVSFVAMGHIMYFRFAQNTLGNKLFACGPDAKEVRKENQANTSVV


How the values were obtained:
[1] = target: T1, human ferroportin; assay type: cell-based; conditions: Table 3
Method: Peptide analogues were tested in vitro for induction of internalization of the human ferroportin protein. Following internalization, the […] are degraded. The assay measures a decrease in fluorescence of the receptor.
The cDNA encoding the human ferroportin (SLC40A1) was cloned from a cDNA clone from Origene (NM_014585). The DNA encoding the ferroportin was amplified by PCR using primers also encoding terminal restriction sites for subcloning, but without the termination codon. The ferroportin receptor was subcloned into a mammalian GFP expression vector containing a neomycin (G418) resistance marker in such that the reading frame of the ferroportin was fused in frame with the GFP protein. The fidelity of the DNA encoding the protein was confirmed by DNA sequencing. HEK293 cells were used for transfection of the ferroportin-GFP receptor expression plasmid. The cells were grown according to standard protocol in growth medium and transfected with the plasmids using Lipofectamine (manufacturer's protocol, Invitrogen). […] The cells were propagated and frozen in aliquots.
A retro inverse peptide is a peptide with a reversed sequence in all D amino acids. […] The EC50 of these reference compounds for ferroportin degradation was determined according to the activity assay described above.

[2] = reported by Presza et al. J Clin Invest. 2011; cited from earlier work
[3] = target: T2, human ferroportin (SLC40A1) fused to GFP; experiment: cell-based or functional assay

| Potency EC50 [3] [µM] | Molecule | also measured |
| --- | --- | --- |
| > 10 | H-DTHFKCIIFGPRSKGWVCK-NH2 (not fully specified (bridges); printed as Hy-DTHFKCIIFGPRSKGWVCK-NH2; cysteine pairing not given here) [CMPD No. 131] | – |
| > 0.3 | DTHFPCIKFKPRSKGWVCK (not fully specified; IVA (isovaleric acid) on side chain of Lys 10; C-terminal amide) [CMPD No. 205] | – |
| > 10 | H-DTHF[βAla]CIIFGPRSKGWVCK-NH2 (not fully specified (bridges); printed as Hy-DTHF-[β-Ala]-CIIFGPRSKGWVCK-NH2; cysteine pairing not given here) [CMPD No. 129] | – |

More lines, now with the values behind:

| Molecule | Potency EC50 [3] [µM] | also measured |
| --- | --- | --- |
| DTHCPIAIF [compound 473] | – | Ferroportin internalization assay EC50 (nM) [1]: Not Active |
| Hy-DPhe-DIle-DCys-DIle-DPro-DPhe-DHis-DThr-DAsp-NH2 [RI-Mini Hepcidin] | – | activity in vivo [2]: highly active in vivo |
| H-DTHFRCIIFGPRSKGWVCK-NH2 (not fully specified (bridges); printed as Hy-DTHFRCIIFGPRSKGWVCK-NH2; cysteine pairing not given here) [CMPD No. 125] | > 10 | – |
| H-DTHFGCIIFGPRSKGWVCK-NH2 (not fully specified (bridges); printed as Hy-DTHFGCIIFGPRSKGWVCK-NH2; cysteine pairing not given here) [CMPD No. 123] | > 10 | – |
| H-DTHF[Sar]CIIFGPRSKGWVCK-NH2 (not fully specified (bridges); printed as Hy-DTHF-[Sarc]-CIIFGPRSKGWVCK-NH2; cysteine pairing not given here) [CMPD No. 127] | > 10 | – |
